For this data set, the target named is ZBTB3 recombinant protein (UniProt Q9H5J0 1-574). Put plainly: EMSA; 10 ng recombinant protein; EMSA: 20 nM biotin probe, 100 mM Tris pH 7.5, 55 mM KCl, 2.5 mM MgCl2, 1 mM DTT, 500 ng poly(dI-dC), 5% glycerol, 0.05% NP-40, 20 ul, room temperature 20 min; 500x unlabeled competitor; 6% native PAGE, 0.5x TBE. As to conditions: protein: commercial; chain copies: 2; label: 5' biotin on strand 1; blunt. A general note: In EMSA bound probe runs differently from free probe, usually more slowly.
Sequence of ZBTB3 recombinant protein (Q9H5J0 whole entry): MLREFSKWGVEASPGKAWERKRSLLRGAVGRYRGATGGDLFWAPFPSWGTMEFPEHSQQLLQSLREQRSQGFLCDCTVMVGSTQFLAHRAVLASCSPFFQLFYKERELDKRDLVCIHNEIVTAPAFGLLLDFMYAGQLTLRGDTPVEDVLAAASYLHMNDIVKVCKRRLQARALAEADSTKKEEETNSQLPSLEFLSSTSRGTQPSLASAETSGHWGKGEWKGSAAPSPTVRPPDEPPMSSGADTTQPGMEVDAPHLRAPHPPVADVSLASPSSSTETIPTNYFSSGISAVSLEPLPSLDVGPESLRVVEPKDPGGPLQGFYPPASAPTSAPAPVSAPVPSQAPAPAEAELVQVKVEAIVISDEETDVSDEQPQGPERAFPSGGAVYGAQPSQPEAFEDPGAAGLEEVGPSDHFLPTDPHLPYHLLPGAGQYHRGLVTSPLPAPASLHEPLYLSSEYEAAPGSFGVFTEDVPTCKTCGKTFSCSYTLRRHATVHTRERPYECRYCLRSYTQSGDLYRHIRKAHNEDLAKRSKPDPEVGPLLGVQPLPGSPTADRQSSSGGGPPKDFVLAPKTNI

B1: rs4728142-A (dsDNA)
DNA 1: CCAAAAAGCTCTGAGCCAGTGTTAGTAAGAAATGG
DNA 2: CCATTTCTTACTAACACTGGCTCAGAGCTTTTTGG
For the molecule B1, the binding result is on record as “binds”.

B2: IRF5-promoter (dsDNA)
DNA 1: CCGGGAGCCCCGCTGGAGGCTGGCTTGGA
DNA 2: TCCAAGCCAGCCTCCAGCGGGGCTCCCGG
For B2, the binding result is reported as “binds”.

Source of the values: PMC9984425, “An autoimmune pleiotropic SNP modulates IRF5 alternative promoter usage through ZBTB3-mediated chromatin looping”.
